Experimental data as given in PMC8024259, “The Pah-R261Q mouse reveals oxidative stress associated with amyloid-like hepatic aggregation of mutant phenylalanine hydroxylase” (Nature Communications, 2021).

Biological target: the molecule itself
Experiment: SEC; preparative isolation of the tetramer after Factor Xa cleavage; Superdex HiLoad 16/600 200, 20 mM Hepes pH 7, 200 mM NaCl

Protein | stoichiometry N
Recombinant human WT-PAH (phenylalanine hydroxylase) (enzyme, UniProt P00439 1-452, looked up, phenylalanine hydroxylase, human, expressed from pMAL as MBP-(pep)xa-PAH and cleaved with Factor Xa; source: E. coli TB1, purified (amylose resin, Factor Xa cleavage, SEC); not shown: MBP, N-terminal, cleaved) MSTAVLENPGLGRKLSDFGQETSYIEDNCNQNGAISLIFSLKEEVGALAKVLRLFEENDVNLTHIESRPSRLKKDEYEFFTHLDKRSLPALTNIIKILRHDIGATVHELSRDKKKDTVPWFPRTIQELDRFANQILSYGAELDADHPGFKDPVYRARRKQFADIAYNYRHGQPIPRVEYMEEEKKTWGTVFKTLKSLYKTHACYEYNHIFPLLEKYCGFHEDNIPQLEDVSQFLQTCTGFRLRPVAGLLSSRDFLGGLAFRVFHCTQYIRHGSKPMYTPEPDICHELLGHVPLFSDRSFAQFSQEIGLASLGAPDEYIEKLATIYWFTVEFGLCKQGDSIKAYGAGLLSSFGELQYCLSEKPKLLPLELEKTAIQNYTVTEFQPLYYVAESFNDAKEKVRNFAATIPRPFSVRYDPYTQRIEVLDNTQQLKILADSINSEIGILCSALQKIK | 4
Recombinant human p.R261Q-PAH (phenylalanine hydroxylase, p.Arg261Gln variant) (enzyme, UniProt P00439 1-452, looked up, phenylalanine hydroxylase, human, PKU patient variant p.R261Q, expressed from pMAL as MBP-(pep)xa-PAH and cleaved with Factor Xa; Variant that occurs in PKU patients (c.782G>A); also called p.PAH-R261Q; source: E. coli TB1, purified (amylose resin, Factor Xa cleavage, SEC); not shown: MBP, N-terminal, cleaved) MSTAVLENPGLGRKLSDFGQETSYIEDNCNQNGAISLIFSLKEEVGALAKVLRLFEENDVNLTHIESRPSRLKKDEYEFFTHLDKRSLPALTNIIKILRHDIGATVHELSRDKKKDTVPWFPRTIQELDRFANQILSYGAELDADHPGFKDPVYRARRKQFADIAYNYRHGQPIPRVEYMEEEKKTWGTVFKTLKSLYKTHACYEYNHIFPLLEKYCGFHEDNIPQLEDVSQFLQTCTGFRLRPVAGLLSSRDFLGGLAFQVFHCTQYIRHGSKPMYTPEPDICHELLGHVPLFSDRSFAQFSQEIGLASLGAPDEYIEKLATIYWFTVEFGLCKQGDSIKAYGAGLLSSFGELQYCLSEKPKLLPLELEKTAIQNYTVTEFQPLYYVAESFNDAKEKVRNFAATIPRPFSVRYDPYTQRIEVLDNTQQLKILADSINSEIGILCSALQKIK | 4
